For one experiment, the target named is T1, Peptide_004 (human).
T1 construct: 15-mer on microarray; not native form, recombinant insert region
T1 peptide: AADVHSQHHHHHHHH
Kind of experiment: peptide microarray, 0.0016 ug/mL. The protocol: (§1) 5, 1, 0.2, 0.04, 0.008 and 0.0016 μg/mL serial dilutions were incubated on a single multi-well microarray slide at 30° C. for 1 hour. The slide includes 21 individual mini-arrays (one mini-array per sample dilution).
(§2) DyLight 650 was used as a label. False-positive binding to a peptide was evaluated by performing one additional control incubation in which only a secondary antibody was applied on the same microarray slide. Before performing each step, the microarrays were washed with a washing buffer.

The target of a further experiment is T2, Peptide_090.
T2 peptide: CMPTFQFFKKGQKVG
Kind of experiment: peptide microarray, anti-mouse IgG DyLight 650, MMC2 heatmap (Example 17).

The next experiment deals with T3, Peptide_081.
T3 peptide: DVASECEVKCMPTFQ
Described as above.

A further experiment has as its target T4, Peptide_007.
T4 peptide: VHSQHHHHHHHHVKQ
The experiment is described as above.

Another experiment has as its target T5, Peptide_009.
T5 peptide: SQHHHHHHHHVKQIE
Described as above.

The next experiment has as its target T6, Peptide_031.
T6 peptide: ALDAAGDKLVVVDFS
The description is as above.

The next experiment deals with T7, Peptide_017.
T7 peptide: HHVKQIESKTAFQEA
Described as above.

The target of a further experiment is T8, Peptide_066.
T8 peptide: YSNVIFLEVDVDDCQ
The description is as above.

The target of a further experiment is T9, Peptide_069.
T9 peptide: VIFLEVDVDDCQDVA
Described as above.

In the next experiment the target is T10, Peptide_010.
T10 peptide: QHHHHHHHHVKQIES
Described as above.

For another experiment, the target named is T11, Peptide_082.
T11 peptide: VASECEVKCMPTFQF
Described as above.

A further experiment concerns the target T12, Peptide_059.
T12 peptide: FHSLSEKYSNVIFLE
Described as above.

In another experiment the target is T13, Peptide_030.
T13 peptide: EALDAAGDKLVVVDF
The description is as above.

The target of another experiment is T14, Peptide_063.
T14 peptide: SEKYSNVIFLEVDVD
The experiment is described as above.

In another experiment the target is T15, Peptide_029.
T15 peptide: QEALDAAGDKLVVVD
The experiment is described as above.

For another experiment, the target named is T16, Peptide_102.
T16 peptide: KVGEFSGANKEKLEA
The experiment is described as above.

The target of a further experiment is T17, Peptide_092 (human).
T17 construct: 15-mer of hTrx1 on microarray
T17 peptide: PTFQFFKKGQKVGEF
The experiment can be described thus: peptide microarray, 0.0016 ug/mL. The protocol:
as §1, §2

The next experiment has as its target T18, Peptide_022 (human).
T18 construct: 15-mer of hTrx1 on microarray
T18 peptide: IESKTAFQEALDAAG
Kind of experiment: peptide microarray, 0.0016 ug/mL. As to the method: as §1, §2

Another experiment concerns the target T19, Peptide_094 (human).
T19 construct: 15-mer of hTrx1 on microarray
T19 peptide: FQFFKKGQKVGEFSG
Kind of experiment: peptide microarray, 0.0016 ug/mL. The protocol:
as §1, §2

Another experiment deals with T20, Peptide_084 (human).
T20 construct: 15-mer of hTrx1 on microarray
T20 peptide: SECEVKCMPTFQFFK
The experiment can be described thus: peptide microarray, 0.0016 ug/mL. The protocol: as §1, §2

For the next experiment, the target named is T21, Peptide_012 (human).
T21 construct: 15-mer on microarray; not native form, includes recombinant insert region
T21 peptide: HHHHHHHVKQIESKT
Kind of experiment: peptide microarray, 0.0016 ug/mL. As to the method:
as §1, §2

The next experiment concerns the target T22, Peptide_021 (human).
T22 construct: 15-mer of hTrx1 on microarray
T22 peptide: QIESKTAFQEALDAA
The experiment can be described thus: peptide microarray, 0.0016 ug/mL. As to the method: as §1, §2

Another experiment addresses T23, Peptide_095 (human).
T23 construct: 15-mer of hTrx1 on microarray
T23 peptide: QFFKKGQKVGEFSGA
The experiment can be described thus: peptide microarray, 0.0016 ug/mL. As to the method:
as §1, §2

The target in a further experiment is T24, Peptide_020 (human).
T24 construct: 15-mer of hTrx1 on microarray
T24 peptide: KQIESKTAFQEALDA
Kind of experiment: peptide microarray, 0.0016 ug/mL. The protocol:
as §1, §2

The target in another experiment is T25, Peptide_025 (human).
T25 construct: 15-mer of hTrx1 on microarray
T25 peptide: KTAFQEALDAAGDKL
The experiment can be described thus: peptide microarray, 0.0016 ug/mL. As to the method:
as §1, §2

Another experiment has as its target T26, Peptide_051 (human).
T26 construct: 15-mer of hTrx1 on microarray
T26 peptide: PCKMIKPFFHSLSEK
The experiment can be described thus: peptide microarray, 0.0016 ug/mL. The protocol: as §1, §2

For another experiment, the target named is T27, Peptide_093 (human).
T27 construct: 15-mer of hTrx1 on microarray
T27 peptide: TFQFFKKGQKVGEFS
The experiment can be described thus: peptide microarray, 0.0016 ug/mL. As to the method: as §1, §2

Another experiment has as its target T28, Peptide_086 (human).
T28 construct: 15-mer of hTrx1 on microarray
T28 peptide: CEVKCMPTFQFFKKG
The experiment can be described thus: peptide microarray, 0.0016 ug/mL. The protocol:
as §1, §2

A further experiment deals with T29, Peptide_014 (human).
T29 construct: 15-mer on microarray; not native form, includes recombinant insert region
T29 peptide: HHHHHVKQIESKTAF
Kind of experiment: peptide microarray, 0.0016 ug/mL. As to the method: as §1, §2

In a further experiment the target is T30, Peptide_024 (human).
T30 construct: 15-mer of hTrx1 on microarray
T30 peptide: SKTAFQEALDAAGDK
Kind of experiment: peptide microarray, 0.0016 ug/mL. As to the method:
as §1, §2

A further experiment has as its target T31, Peptide_023 (human).
T31 construct: 15-mer of hTrx1 on microarray
T31 peptide: ESKTAFQEALDAAGD
Kind of experiment: peptide microarray, 0.0016 ug/mL. As to the method:
as §1, §2

B1: monoclonal antibody B266-1 (antibody, human IgG1)
light: QIVLTQSPAIMSASPGEKVTMTCSASSRISYMYWYQQKPGTSPKRWIYDTSKLASGVPARFSGSGSGTSYSLTISTMEAEDAATYYCHQRSSYPTFGAGTKLELKSVAAPSVFIFPPSDEQLKSGTASVVCLLNNFYPREAKVQWKVDNALQSGNSQESVTEQDSKDSTYSLSSTLTLSKADYEKHKVYACEVTHQGLSSPVTKSFNRGEC
heavy: not shown
notes: B266 with the Fc part changed to human IgG1; also called B266-1 (Trx1-hIgG1); B266-1 (hTrx1-hIgG1)
Consider B1, for which the “signal (blank-control = 1)” value in the experiment with Peptide_004 was 0.99.

B2: monoclonal antibody B264 (antibody, mouse IgG1, kappa, V domains shown)
VH: QVQLQQSGAELARPGASVKMSCKASGYTFTSYTMHWVKQRPGQGLEWIGYINPTSDYTNYNQKFKDKATLTADKSSSTAYMQLSSLTSEDSAVYFCASEGGFLYYFDYWGQGTTLTVSS
VL: DVLMTQTPLSLPVSLGDQASISCRSSQSIVHSNGNTYLEWYLQKPGQSPKLLIYKVSNRFSGVPDRFSGSGSGTDFTLKISRVEAEDLGVYYCFQGSHVPYTFGGGTKLEIKR
notes: also called AB264; B264 (Trx1-mIgG1)
Take B2: the binding result with Peptide_090 is “no binding (tested: 5 ug/mL)”; with Peptide_081, “no binding (tested: 5 ug/mL)”; with Peptide_007, “no binding (tested: 5 ug/mL)”; with Peptide_009, “no binding (tested: 5 ug/mL)”; in the experiment with Peptide_031, “no binding (tested: 5 ug/mL)”; with Peptide_017 it was “binds”. Also, the binding result with Peptide_066, with Peptide_069, with Peptide_010, in the experiment with Peptide_082, with Peptide_059 and with Peptide_030 was “no binding (tested: 5 ug/mL)” throughout. The binding result with Peptide_063, with Peptide_029 and with Peptide_102 was “no binding (tested: 5 ug/mL)” throughout. Further, the “signal (blank-control = 1)” value in the experiment with Peptide_092 came to 1.86; with Peptide_022, 0.72; in the experiment with Peptide_094 it was 0.62; with Peptide_084, 0.97; in the experiment with Peptide_012, 0.81; with Peptide_021, 0.73. In addition, the “signal (blank-control = 1)” value with Peptide_095 came out at 1.07; with Peptide_020, 0.71; with Peptide_025 it was 0.88; with Peptide_051, 0.58; with Peptide_093, 1.12; with Peptide_086, 0.82. Moreover, the “signal (blank-control = 1)” value with Peptide_014 came out at 0.69; in the experiment with Peptide_024, 0.72; with Peptide_023, 0.78.

These data come from US20240192215A1 (E AND S HEALTHCARE, published 2024).
